Data as given in patent US20170204158A1 (Regeneron, published 2017).

What was measured:
[1] = molecular target: T1, monkey IL-33 expressed with C-terminal hexahistidine tag (MfIL-33-6His) (cynomolgus monkey (M. fascicularis)); assay: SPR (Biacore T-200), 25 C; Fc fusion captured by anti-Fc antibody, MfIL-33-6His injected
T1 construct: also called M. fascicularis IL-33-6His; cynomolgus monkey IL-33
T1 chain: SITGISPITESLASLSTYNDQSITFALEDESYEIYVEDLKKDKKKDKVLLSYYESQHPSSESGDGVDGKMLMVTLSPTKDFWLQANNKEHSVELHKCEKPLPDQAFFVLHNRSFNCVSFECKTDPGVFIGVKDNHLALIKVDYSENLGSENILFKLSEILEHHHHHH
Description: (§1) The Biacore sensor surface was first derivatized by amine coupling a polyclonal rabbit anti-mouse antibody (GE, # BR-1008-38) or with a monoclonal mouse anti-human Fc antibody (GE, # BR-1008-39) to capture IL-33 Trap and receptor proteins with a C-terminal mouse IgG2a Fc tag or a C-terminal human IgG1 Fc tag, respectively. Kinetic experiments were carried out in 0.01 M HEPES pH 7.4, 0.15 M NaCl, 3 mM EDTA, and 0.005% v/v Surfactant Tween-20 (HBST running buffer). Different concentrations of human IL-33, mouse IL-33 or MfIL-33-6His prepared in HBST running buffer (ranging from 60 nM to 27.4 pM, 3-fold dilutions, for Trap proteins and ranging from 60 nM to 0.25 nM, 3-fold dilutions, for ST2 receptor proteins) were injected over the captured IL-33 Trap and receptor protein surfaces at a flow rate of 50 μL/minute. Association of different IL-33 proteins to the different capture surfaces was monitored for 7 minutes for Trap proteins or 4 minutes for ST2 receptor proteins and their dissociation in HBST running buffer was monitored for 14 minutes for Trap proteins or 8 minutes for ST2 receptor proteins. Kinetic association (ka) and dissociation (kd) rate constants were determined by fitting the real-time binding sensorgrams to a 1:1 binding model using Scrubber 2.0c curve-fitting software. Binding dissociation equilibrium constants (KD) and dissociative half-lives (t½) were calculated from the kinetic rate constants as: […]

[2] = molecular target: T2, mouse IL-33 (R&D Systems, # 3626-ML-010/CF) (mouse, UniProt Q8BVZ5 109-266); assay: SPR (Biacore T-200), 37 C; Fc fusion captured by anti-Fc antibody, mouse IL-33 injected
T2 construct: Commercial protein; also called mIL-33; mIL33
T2 sequence (looked up): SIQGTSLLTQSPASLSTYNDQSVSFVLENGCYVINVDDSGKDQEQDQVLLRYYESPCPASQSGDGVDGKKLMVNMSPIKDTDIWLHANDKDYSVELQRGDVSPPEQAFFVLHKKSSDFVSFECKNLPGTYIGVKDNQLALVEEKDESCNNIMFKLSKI
Description: as §1

[3] = molecular target: T3, human IL-33 (R&D Systems, # 3625-IL-010/CF) (human, UniProt O95760 112-270, biotinylated in the blocking ELISA of Example 3 (sites not given)); assay: cell-based or functional assay
T3 sequence (looked up): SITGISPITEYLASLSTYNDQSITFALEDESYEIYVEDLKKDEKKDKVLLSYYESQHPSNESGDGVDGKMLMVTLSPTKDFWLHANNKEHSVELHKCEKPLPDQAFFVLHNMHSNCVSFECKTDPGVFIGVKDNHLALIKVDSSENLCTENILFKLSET

[4] = molecular target: T2, mouse IL-33 (R&D Systems, # …); assay: SPR (Biacore T-200), 25 C; Fc fusion captured by anti-Fc antibody, mouse IL-33 injected
Description: as §1

[5] = molecular target: T3, human IL-33 (R&D Systems, # …); assay: competition ELISA; antagonist pre-mixed with 20 pM biotin-hIL-33, binding to plate-coated human ST2-Fc; highest concentration tested
Description: The ability of exemplary IL-33 antagonists of the invention to block human IL-33 (hIL-33) binding to the human ST2 receptor was measured using a competition sandwich ELISA. A portion of human ST2 protein ecto domain that was expressed with a C-terminal mouse Fc tag (SEQ ID NO:2) was coated at a concentration of 1 μg/mL in PBS buffer on a 96-well microtiter plate overnight at 4° C. […] Biotinylated hIL-33 protein (R&D systems, #3625-IL/CF) (biot-hIL-33) was added to achieve a constant final concentration of 20 pM to serial dilutions of IL-33 antagonists ranging from 0 to 100 nM. The mixture was incubated for 1 hour at room temperature (RT) before transfer to the hST2-hFc coated microtiter plates. After incubation for 1 hour at RT, the wells were then washed, and plate-bound biot-hIL-33 was detected with HRP-conjugated streptavidin (Thermo Scientific, # N200). All samples were developed with a TMB solution (BD biosciences, # 51-2607KC) to produce a colorimetric reaction and then quenched by acidification with 1M sulfuric acid before measuring absorbance at 450 nm on a Victor X5 plate reader (PerkinElmer). Data analysis was performed using a sigmoidal dose-response model within Prism™ software. […] Maximum blocking values represent the ability of the antagonists to block IL-33 binding relative to baseline. The absorbance measured at the constant amount of hIL-33 on the dose curve was defined as 0% blocking and the absorbance with no added IL-33 was defined as 100% blocking. The absorbance values of the wells containing the highest concentration tested for each antagonist were used to determine the maximum blocking percent.

[6] = molecular target: T3, human IL-33 (R&D Systems, # …); assay: cell-based or functional assay; remark: listed apart in the source
[7] = molecular target: T1, monkey IL-33 expressed with C-terminal …; assay: cell-based or functional assay

B1: hST2-hIL1RAcP-mFc (Fc fusion)
chain: KFSKQSWGLENEALIVRCPRQGKPSYTVDWYYSQTNKSIPTQERNRVFASGQLLKFLPAAVADSGIYTCIVRSPTFNRTGYANVTIYKKQSDCNVPDYLMYSTVSGSEKNSKIYCPTIDLYNWTAPLEWFKNCQALQGSRYRAHKSFLVIDNVMTEDAGDYTCKFIHNENGANYSVTATRSFTVKDEQGFSLFPVIGAPAQNEIKEVEIGKNANLTCSACFGKGTQFLAAVLWQLNGTKITDFGEPRIQQEEGQNQSFSNGLACLDMVLRIADVKEEDLLLQYDCLALNLHGLRRHTVRLSRKNPIDHHSSERCDDWGLDTMRQIQVFEDEPARIKCPLFEHFLKFNYSTAHSAGLTLIWYWTRQDRDLEEPINFRLPENRISKEKDVLWFRPTLLNDTGNYTCMLRNTTYCSKVAFPLEVVQKDSCFNSPMKLPVHKLYIEYGIQRITCPNVDGYFPSSVKPTITWYMGCYKIQNFNNVIPEGMNLSFLIALISNNGNYTCVVTYPENGRTFHLTRTLTVKVVGSPKNAVPPVIHSPNDHVVYEKEPGEELLIPCTVYFSFLMDSRNEVWWTIDGKKPDDITIDVTINESISHSRTEDETRTQILSIKKVTSEDLKRSYVCHARSAKGEVAKAAKVKQKVPAPRYTVESGEPRGPTIKPCPPCKCPAPNLLGGPSVFIFPPKIKDVLMISLSPIVTCVVVDVSEDDPDVQISWFVNNVEVHTAQTQTHREDYNSTLRVVSALPIQHQDWMSGKEFKCKVNNKDLPAPIERTISKPKGSVRAPQVYVLPPPEEEMTKKQVTLTCMVTDFMPEDIYVEWTNNGKTELNYKNTEPVLDSDGSYFMYSKLRVEKKNWVERNSYSCSVVHEGLHNHHTTKSFSRTPGK
notes: also called third IL-33 antagonist; human IL-33 Trap
60 nM Monkey IL-33 Bound (RU) [1]: 28 RU | Kd [1]: 3.13 pM | koff [1]: 4.09e-05 s⁻¹ | kon [1]: 1.31e+07 M⁻¹ s⁻¹ | t1/2 [1]: 282 min | 60 nM Mouse IL-33 Bound (RU) [2]: 21 RU | Kd [2]: 0.0933 nM | koff [2]: 0.000317 s⁻¹ | kon [2]: 3.39e+06 M⁻¹ s⁻¹ | t1/2 [2]: 36 min | IC50 (M), blocking of IL-33 induced IFN-gamma release from human PBMC, donor 634966 [3]: 2.13e-12 M | IC50 (M), blocking of IL-33 induced IFN-gamma release from human PBMC, donor 655681 [3]: 4.59e-11 M | IC50 (M), blocking of IL-33 induced IFN-gamma release from human PBMC, donor 655682 [3]: 3.97e-12 M | IC50 (M), blocking of IL-33 induced IFN-gamma release from human PBMC, donor 655684 [3]: 6.79e-11 M | IC50 (M), blocking of IL-33 induced IFN-gamma release from human PBMC, donor 698842 [3]: 7.39e-11 M | IC50 (M), blocking of IL-33 induced IFN-gamma release from human PBMC, donor 698843 [3]: 1.73e-11 M | IC50 (M), blocking of IL-33 induced IFN-gamma release from human PBMC, donor 727054 [3]: 3.34e-10 M | IC50 (M), blocking of IL-33 induced IFN-gamma release from human PBMC, donor 727055 [3]: 1.23e-10 M | 60 nM Mouse IL-33 Bound (RU) [4]: 22 RU | Kd [4]: 0.0192 nM | koff [4]: 8.97e-05 s⁻¹ | kon [4]: 4.67e+06 M⁻¹ s⁻¹ | t1/2 [4]: 129 min | % Maximum blocking [5]: 97% | IC50 (M), inhibition of 5 pM human IL-33 activation of HEK293/hST2/NFkB-luciferase cells [6]: 1.3e-12 M | IC50 (M), inhibition of 20 pM human IL-33 activation of HEK293/hST2/NFkB-luciferase cells [6]: 1.3e-11 M | IC50 (M), inhibition of 3 pM monkey IL-33 activation of HEK293/hST2/NFkB-luciferase cells [7]: 4.7e-11 M | IC50 (M), inhibition of 5 pM monkey IL-33 activation of HEK293/hST2/NFkB-luciferase cells [7]: 1.3e-12 M
